This is an account of results in US20240052027A1 (OBLIQUE THERAPEUTICS, published 2024).

Assay [1] deals with T1, mOTV16 peptide (SEQ ID NO:9) (mouse, disulfide 1-19).
T1 construct: cyclic
T1 peptide: Propargyl-CYRPVEGLPPYKLNNTVGC-NH2
The assay can be described thus: peptide ELISA of purified recombinant monoclonal antibody. On the procedure: (§1) FIG. 6: Peptide ELISA of purified recombinant monoclonal antibodies. Monoclonal antibodies were tested for binding to OTV16 peptide, NHP-OTV16 peptide, mOTV16 peptide and rOTV16 peptide. Non-specific binding was determined using wells coated with bovine serum albumin (BSA). Serum from immunized rabbit (known to contain OTV16-binding antibody) was used as a positive binding control. Serial dilutions of antibody were incubated for 1 hr in ELISA plates coated with peptide or BSA. Plates were washed, and bound antibody was detected using anti-rabbit IgG conjugated to […] with absorbance measured at 405 nm.
(§2) 96-well plates suitable for ELISA were coated with peptide (1 μg/mL) in PBS and incubated 1 h at 37° C. The peptides used to coat the plates were OTV16 (SEQ ID NO:3; described above), NHP-OTV16 (SEQ ID NO:5; described above), rOTV16 (SEQ ID NO:7; described above) and mOTV16 (SEQ ID NO:9; described below). Plates were washed with PBS containing 0.05% Tween and incubated 1 h at 37° C. in the presence of blocking buffer (PBS, 0.5% BSA, 0.05% Tween 20, pH 7.4). A serial dilution of recombinant antibodies of the invention (23B9-1 or 24C6-1 or 27A2-1 or 29B5-1 or 2B₁₁-1 or 33B6-1 or 4D11-1 or 54F1-1 or 69H7-1 or 75C9-1 or 9E4-1) was added in blocking buffer and incubated for 1 h at RT. Plates were washed with PBS containing 0.05% Tween and a secondary antibody (anti-rabbit IgG conjugated to Alkaline Phosphatase (DAKO)), was added and incubated for 1 h at RT. Plates were washed with PBS containing 0.05% Tween followed by addition of 1 mg/mL pNPP (p-nitrophenyl […] phosphate) in pNPP buffer. Absorbance was measured at 405 nm. Serum from rabbit immunized with OTV16 peptide was used as a positive control. Non-specific binding, e.g. to plastic, was determined using wells coated with bovine serum albumin (BSA) protein.
(In general: ELISA stands for enzyme-linked immunosorbent assay.)

The target in assay [2] is T2, OTV16 peptide (SEQ ID NO:3) (human, disulfide 1-18; SMILES …).
T2 construct: cyclic; Coated on ELISA plates
T2 peptide: Propargyl-CYRPVDGLPPFKMEKTGC-NH2
The assay can be described thus: peptide ELISA of B-cell clone supernatant. How it is done: (§3) FIG. 5: Peptide ELISA of B-cell clone supernatants. Antibody in supernatant from B-cell clones was tested for binding to OTV16 peptide, NHP-OTV16 peptide and rOTV16 peptide respectively. B-cell supernatants were incubated for 1 hr in 96-well plates coated with the respective peptide. Plates were washed and bound antibody was detected using anti-rabbit IgG conjugated to horse radish peroxidase with absorbance measured at 450 nm. Serum from immunized rabbit was used as a positive binding control. B-cell culture medium (antibody-free) was used as a negative control. N=1.
(§4) 96-well plates suitable for ELISA were coated with respective peptide (1 μg/mL) in PBS and incubated 1 h at 37° C. or overnight at 4° C. The peptides used to coat the plates were OTV16 (SEQ ID NO:3), NHP-OTV16 (SEQ ID NO:5), and rOTV16 (SEQ ID NO:7) (described below). Plates were washed with wash buffer and incubated 1 h at 37° C. in the presence of blocking buffer (PBS, 0.5% BSA, 0.05% Tween 20, pH 7.4). B-cell supernatants were added and incubated for 1 h at 37° C. Plates were washed with wash buffer and Mouse Anti-Rabbit IgG Fc Antibody conjugated to horseradish peroxidase (Genscript, cat #A01856) was added and incubated for 30 minutes, 37° C. Plates were washed with wash buffer followed by addition of substrate solution, 100 μl/well and incubated for 13-20 minutes at RT. Reaction was stopped by adding 100 μl/well of stop solution. Absorbance was measured at 450 nm. Serum from immunized rabbit known to contain antibody that binds to OTV16 peptide was used as a positive control. B-cell culture medium (antibody-free) was used as a negative control.

The target in assay [3] is T3, NHP-OTV16 peptide (SEQ ID NO:5) (Macaca mulatta, disulfide 1-18).
T3 construct: cyclic
T3 peptide: Propargyl-CYRPVDGLPPFKMEKTEC-NH2
The assay can be described thus: peptide ELISA of B-cell clone supernatant. On the procedure: as §3, §4

In assay [4] the target is T2, OTV16 peptide (SEQ ID NO:3). Nature of the assay: peptide ELISA of purified recombinant monoclonal antibody. How it is done: as §1, §2
Assay [5] deals with T4, rOTV16 peptide (SEQ ID NO:7) (rat, disulfide 1-18).
T4 construct: cyclic
T4 peptide: Propargyl-CYRPVEGLPPYKLKNTGC-NH2
The assay can be described thus: peptide ELISA of B-cell clone supernatant. On the procedure: as §3, §4

Positions count from the first letter of the chain named. Bridge positions count the residues as written; N and C are the ends. * marks the point of attachment. Propargyl = C#CC*

B1: 9E4-1 (antibody, V domains shown)
VH: QSLEESGGRLVTPGTPLTLTCTVSGIDLSSVTMGWVRQAPGKGLEYIGVIVPRGATYYANWVKGRFTISKTSTTVDLKMTSLTTEDTATYFCARDGDTGNIYGYYFDIWGPGTLVTVSL
VL: AYDMTQTPASVSEPVGGTVTIKCQASQSISTALAWYQQKSGQRPKLLIYDAWKLASGVSSRFKGSGSGTQFTLTISGVQCDDAATYYCQQGYSGNNVDNVFGGGTEVVVS
notes: Recombinant rabbit IgG with rabbit kappa light chain, made in HEK cells; Also tested as B-cell clone supernatant; also called monoclonal antibody 9E4-1
In the case of B1, the binding result in assay [1], in assay [2] and in assay [3] was “binds” each time.

B2: 29B5-1 (antibody, V domains shown)
VH: B1 VH with V51T, P52T, R53I, G54R, A55T, N60S, K63N, K70Q, G99T, I101T
VL: AVVMTQTPASVEVAVGGTVTIKCQASQSISSYLAWYQQKPGQPPKLLIYKASTLASGVPSRFKGSGSGTQFTLTISGVQCDDAATYYCQQGYTGNNVDNIFGGGTEVVVK
notes: Recombinant rabbit IgG with rabbit kappa light chain, made in HEK cells; Also tested as B-cell clone supernatant; also called monoclonal antibody 29B5-1
On to B2, for which the binding result in assay [4] and in assay [3] was “binds” throughout.

B3: 23B9-1 (antibody, V domains shown)
VH: QSVEESGGRPVTPGTPLTLTCTVSGIDLSRYAVDWVRQAPGKGLEWIGIILTSGKISYASWVKGRFTISKTSTTVDLKMTSLTTEDTATYFCARHFDLWGQGTLVTVSS
VL: QVLTQTASPVSAAVGGTVTINCQSSQSVYNNNNLAWYQQKPGQPPKLLIYDSSKLESGVPSRFKGSGSGTQFTLIISDLECDDAATYYCAGGYSGVIASFGGGTEVVVK
notes: Recombinant rabbit IgG with rabbit kappa light chain, made in HEK cells; Also tested as B-cell clone supernatant; also called monoclonal antibody 23B9-1
Consider B3, for which the binding result in assay [1], in assay [2] and in assay [3] was “binds” throughout.

B4: 2B11-1 (antibody, V domains shown)
VH: QSVGESGGRLVTPGTPLTLTCTVSGIDLSIYPVDWVRQAPGKGLEWIGIINTNGNTYYANWAKGRFTISKTSSTTVDLQVTSLTTEDTATYFCARHFDLWGQGTLVTVSS
VL: B3 VL with S27T, P41S, K64S, I75T, S94G, V96W, S99A
notes: Recombinant rabbit IgG with rabbit kappa light chain, made in HEK cells; Also tested as B-cell clone supernatant; also called monoclonal antibody 2B11-1
For B4, the binding result in assay [4], in assay [1], in assay [3] and in assay [5] was “binds” in each case.

B5: 54F1-1 (antibody, V domains shown)
VH: B4 VH with I30V, N51S, Q79K, V80M
VL: B3 VL with S27T, P41S, S53F, K64S, I75T, S94A, V96W, S99A
notes: Recombinant rabbit IgG with rabbit kappa light chain, made in HEK cells; Also tested as B-cell clone supernatant; also called monoclonal antibody 54F1-1
Regarding B5, the binding result in assay [4], in assay [1], in assay [3] and in assay [5] was “binds” in each case.

B6: 4D11-1 (antibody, V domains shown)
VH: QEQVVESGGGLVQPEGSLTLTCTASGFDFSSNAMCWVRQAPGKGLAWIGCIGTGSSGSTYYASWARGRFTISKTSSTTVTLQMTSLTAADTATYFCPRDINAYGNDGWSFNLWGPGTLVTVSS
VL: AYDMTQTPASVEVAVGGTVTIKCQASQSIVGWLSWYQQKPGQPPKLLIYRASTLASGVPSRFKGSGSGTEFTLTISDLECDDAATYYCQQGYTFNNVDNPFGGGTEVLVK
notes: Recombinant rabbit IgG with rabbit kappa light chain, made in HEK cells; Also tested as B-cell clone supernatant; also called monoclonal antibody 4D11-1
For B6, the binding result in assay [4] and in assay [3] was “binds” in each case.

B7: 33B6-1 (antibody, V domains shown)
VH: QSLEESGGRLVTPGTPLTLTCTASGLSLSSYDMNWVRQAPGKGLEYIGFINTRGSAYYASWATGRFTISRTSTTVDLTMTSPTTEDTATYFCARDIPDWDIGHVFDLWGPGTLVTVSS
VL: AYDMTQTPASVEVTMGGAVTIKCQASQSISNELSWYQQKPGQRPRLLIYQASALASGVPSRFKGSGYGTQFTLTISDLECADAATYYCQQGYTSNNIVNAFGGGTEVVVK
notes: Recombinant rabbit IgG with rabbit kappa light chain, made in HEK cells; Also tested as B-cell clone supernatant; also called monoclonal antibody 33B6-1
For B7, the binding result in assay [4] and in assay [3] was “binds” in each case.

B8: 27A2-1 (antibody, V domains shown)
VH: B7 VH with S6A, T15G, P16S, Y46F, S55T, T63K, D100N
VL: B7 VL with K22N, S30T, S34A
notes: Recombinant rabbit IgG with rabbit kappa light chain, made in HEK cells; Also tested as B-cell clone supernatant; also called monoclonal antibody 27A2-1
For B8, the binding result in assay [4] and in assay [3] was “binds” in each case.

B9: 69H7-1 (antibody, V domains shown)
VH: B7 VH with S30R, A56T, S60T, A62T
VL: B7 VL with E12S, V13G, T14A, M15V, A18T, K22N, A53T
notes: Recombinant rabbit IgG with rabbit kappa light chain, made in HEK cells; Also tested as B-cell clone supernatant; also called monoclonal antibody 69H7-1
On to B9, for which the binding result in assay [2] and in assay [3] was “binds” each time.

B10: 24C6-1 (antibody, V domains shown)
VH: QSVEESGGRLVTPGTPLTLTCTVSGFSLSTYAMAWVRQAPGKGLEWIGIIGQSSKTYYAIWAKGRFTISRTSTTVDLKIPSPTTEDTATYFCARGSTYVLDMWGPGTLVTVSL
VL: AVVMTQTASPVSAAVGGTVTIKCQASQSISSYLAWYQQKPGQPPKLLIADASKLVSGVPSRFKGSGSGTEFTLTISDLECADAATYYCQNYYGSSDFGTFGGGTEVVVE
notes: Recombinant rabbit IgG with rabbit kappa light chain, made in HEK cells; Also tested as B-cell clone supernatant; also called monoclonal antibody 24C6-1
For B10, the binding result in assay [4] and in assay [3] was “binds” throughout.

B11: 75C9-1 (antibody, V domains shown)
VH: QEQVVESGGGLVQPEGSLTLTCTASGFSFNNNAMCWVRQAPGKGLEWIGCIGTAASGNSYYASWAKGRFTISRTSSTTVTLQMTSLTAADTATYFCPRDINAYGNDGWSFKLWGPGTLVTVSS
VL: AFELTQTPSSVEAAVGGTVTIKCQASQSINGWLSWYQQKPGQPPKLLIYRASPVASGVPSRFKGSGSGTEYTLTISGVQCDDAATYYCQQGYTFNNVDDPFGGGTEVVVK
notes: Recombinant rabbit IgG with rabbit kappa light chain, made in HEK cells; Also tested as B-cell clone supernatant; also called monoclonal antibody 75C9-1
Turning to B11, the binding result in assay [2] and in assay [3] was “binds” each time.
